Experimental findings from patent US20110077210A1 (published 2011) are described below.

Experiment [1] addresses T1, full length HDAC1 (yeast two-hybrid bait) (Homo sapiens (Human), UniProt Q13547 1-482).
T1 construct: also called histone deacetylase 1
Description: yeast two-hybrid screen.

Experiment [2] has as its target HDAC1-flag (Homo sapiens (Human), UniProt Q13547 1-482). Description: cell-based or functional assay.

Sequence of HDAC1-flag (Q13547 whole entry): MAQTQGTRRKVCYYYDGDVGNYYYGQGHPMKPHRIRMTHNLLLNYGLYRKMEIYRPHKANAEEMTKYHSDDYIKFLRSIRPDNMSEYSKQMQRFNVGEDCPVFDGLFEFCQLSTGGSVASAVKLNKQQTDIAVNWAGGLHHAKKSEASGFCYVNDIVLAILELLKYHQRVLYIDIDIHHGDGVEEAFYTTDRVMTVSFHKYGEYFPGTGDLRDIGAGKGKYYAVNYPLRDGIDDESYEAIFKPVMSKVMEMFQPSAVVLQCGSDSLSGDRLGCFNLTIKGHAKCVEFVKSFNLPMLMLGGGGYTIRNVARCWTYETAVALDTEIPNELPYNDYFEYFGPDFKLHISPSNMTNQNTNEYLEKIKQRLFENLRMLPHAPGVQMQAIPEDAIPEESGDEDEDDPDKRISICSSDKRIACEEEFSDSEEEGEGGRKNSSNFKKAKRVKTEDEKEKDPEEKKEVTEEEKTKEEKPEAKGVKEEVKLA
T1 sequence (Q13547 whole entry): as above

B1: fragment of APPL (aa 489-639) identified in the yeast two-hybrid screen (other)
chain: TKSETEDSILHQLFIVRFLGSMEVKSDDHPDVVYETMRQILAARAIHNIFRMTESHLLVTCDCLKLIDPQTQVTRLTFPLPCVVLYATHQENKRLFGFVLRTSSGRSESNLSSVCYIFESNNEGEKICDSVGLAKQIALHAELDRRASEKQ
notes: Prey from a human brain cDNA library; The fragment fully overlaps the PTB domain (aa 500-634); also called APPL-PTB; fragment of DIP13alpha
As to B1, the binding result in experiment [1] is “binds”.

B2: V5-APPL (full length APPL protein) (other, not shown: small tags and cut ends)
chain: MPGIDKLPIEETLEDSPQTRSLLGVFEEDATAISNYMNQLYQAMHRIYDAQNELSAATHLTSKLLKEYEKQRFPLGGDDEVMSSTLQQFSKVIDELSSCHAVLSTQLADAMMFPITQFKERDLKEILTLKEVFQIASNDHDAAINRYSRLSKKRENDKVKYEVTEDVYTSRKKQHQTMMHYFCALNTLQYKKKIALLEPLLGYMQAQISFFKMGSENLNEQLEEFLANIGTSVQNVRREMDSDIETMQQTIEDLEVASDPLYVPDPDPTKFPVNRNLTRKAGYLNARNKTGLVSSTWDRQFYFTQGGNLMSQARGDVAGGLAMDIDNCSVMAVDCEDRRYCFQITSFDGKKSSILQAESKKDHEEWICTINNISKQIYLSENPEETAARVNQSALEAVTPSPSFQQRHESLRPAAGQSRPPTARTSSSGSLGSESTNLAALSLDSLVAPDTPIQFDIISPVCEDQPGQAKAFGQGGRRTNPFGESGGSTKSETEDSILHQLFIVRFLGSMEVKSDDHPDVVYETMRQILAARAIHNIFRMTESHLLVTCDCLKLIDPQTQVTRLTFPLPCVVLYATHQENKRLFGFVLRTSSGRSESNLSSVCYIFESNNEGEKICDSVGLAKQIALHAELDRRASEKQKEIERVKEKQQKELNKQKQIEKDLEEQSRLIAASSRPNQASSEGQFVVLSSSQSEESDLGEGGKKRESEA
Turning to B2, in experiment [2], the “HDAC1 activity: release of [3H]acetic acid from an [3H]acetyl-labeled histone H4 peptide by immunoprecipitated HDAC1” value is approximately 4 fold.
